The text below walks through data of publication PMC4670574 (2016).

Square brackets hold non-standard residues; d marks the D form. Ends that are not written are not given here. pT = C[C@@H](OP(=O)(O)O)[C@H](N)C(=O)O

The target in the test is T1, pCdc25C phosphopeptide (Homo sapiens).
T1 chain: EQPL[pT]PVTDL
Put plainly: ITC. For orientation: Isothermal titration calorimetry measures the heat released or taken up as one component is titrated into another.

B1: Pin1 isolated PPIase domain PPIase domain (protein)
chain: PARVRCSHLLVKHSQSRRPSSWRQEKITRTKEEALELINGYIQKIKSGEEDFESLASQFSDCSSAKARGDLGAFSRGQMQKPFEDASFALRTGEMSGPVFTDSGIHIILRTE
For orientation: Kd means the concentration at which binding is half-saturated. Regarding B1, the dissociation constant (Kd) was more than 1 mM.
